Assay results: article PMC7267773, “CCDC61/VFL3 Is a Paralog of SAS6 and Promotes Ciliary Functions” (Structure(London, England:1993), 2020)

B1: N-terminal head domain of human CCDC61 (hCCDC61^1-143) [human] / itself (parent)
chain: GSMDQPAGLQVDYVFRGVEHAVRVMVSGQVLELEVEDRMTADQWRGEFDAGFIEDLTHKTGNFKQFNIFCHMLESALTQSSESVTLDLLTYTDLESLRNRKMGGRPGSLAPRSAQLNSKRYLILIYSVEFDRIHYPLPLPYQGKP

Variants of: B1
Assay: analytical ultracentrifugation (AUC)
Details: with itself

Row | screen value | Variant
1 | 16 kDa | chain 1 F130E D131A
